Laboratory results as given in publication PMC6739165.

Target: mCerulean-Hsp70 (UniProt P0DMV8)
Assay: FRET or BRET

UniProt P0DMV8, sequence (P0DMV8 whole entry): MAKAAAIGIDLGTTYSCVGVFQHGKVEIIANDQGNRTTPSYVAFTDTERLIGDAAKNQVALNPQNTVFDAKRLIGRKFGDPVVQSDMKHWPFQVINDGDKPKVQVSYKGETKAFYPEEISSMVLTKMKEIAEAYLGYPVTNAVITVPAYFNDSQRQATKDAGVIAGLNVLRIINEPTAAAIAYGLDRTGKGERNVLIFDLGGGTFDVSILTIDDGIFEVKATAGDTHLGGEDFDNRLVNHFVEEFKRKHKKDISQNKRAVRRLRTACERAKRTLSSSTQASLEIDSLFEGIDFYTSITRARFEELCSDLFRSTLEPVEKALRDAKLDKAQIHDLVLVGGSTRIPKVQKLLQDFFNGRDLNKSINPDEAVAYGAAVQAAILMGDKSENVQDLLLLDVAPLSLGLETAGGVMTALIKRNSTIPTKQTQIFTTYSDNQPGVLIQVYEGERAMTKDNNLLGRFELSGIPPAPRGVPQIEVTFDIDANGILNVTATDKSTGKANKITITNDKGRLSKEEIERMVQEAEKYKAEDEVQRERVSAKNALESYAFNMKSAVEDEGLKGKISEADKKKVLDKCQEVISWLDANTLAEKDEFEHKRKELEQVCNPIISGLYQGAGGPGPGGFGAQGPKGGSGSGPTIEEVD

percent FRET efficiency: 33%
Substance: mVenus-OLA1 (from UniProt Q9NTK5 1-396) (natural protein)
